In patent US20240400708A1:

Assays:
[1] = biological target: feline FcRn complex (FcRn-α subunit and β-microglobulin) (feline); test: SPR (Biacore), FcRn on SA chip, pH 6
[2] = biological target: feline FcRn complex (FcRn-α subunit and β-microglobulin) (feline); test: SPR (Biacore), FcRn on SA chip, pH 7.4

| Binder | Kd [1] | Kd [2] |
| --- | --- | --- |
| feline IgG1a mutant ID No. 252: S428M, S434F (antibody, part only; not given: variable domains and light chain, not shown: another chain or arm of the molecule) constant: ASTTAPSVFPLAPSCGTTSGATVALACLVLGYFPEPVTVSWNSGALTSGVHTFPAVLQASGLYSLSSMVTVPSSRWLSDTFTCNVAHPPSNTKVDKTVRKTDHPPGPKPCDCPKCPPPEMLGGPSIFIFPPKPKDTLSISRTPEVTCLVVDLGPDDSDVQITWFVDNTQVYTAKTSPREEQFNSTYRVVSVLPILHQDWLKGKEFKCKVNSKSLPSPIERTISKAKGQPHEPQVYVLPPAQEELSRNKVSVTCLIKSFHPPDIAVEWEITGQPEPENNYRTTPPQLDSDGTYFVYSKLSVDRSHWQRGNTYTCSVMHEALHFHHTQKSLTQSPGK | 0.19 nM | 27.4 nM |
| feline IgG1a mutant ID No. 254: S428M, S434N (antibody, part only; not given: Variable domains, not shown: another chain or arm of the molecule) constant: ASTTAPSVFPLAPSCGTTSGATVALACLVLGYFPEPVTVSWNSGALTSGVHTFPAVLQASGLYSLSSMVTVPSSRWLSDTFTCNVAHPPSNTKVDKTVRKTDHPPGPKPCDCPKCPPPEMLGGPSIFIFPPKPKDTLSISRTPEVTCLVVDLGPDDSDVQITWFVDNTQVYTAKTSPREEQFNSTYRVVSVLPILHQDWLKGKEFKCKVNSKSLPSPIERTISKAKGQPHEPQVYVLPPAQEELSRNKVSVTCLIKSFHPPDIAVEWEITGQPEPENNYRTTPPQLDSDGTYFVYSKLSVDRSHWQRGNTYTCSVMHEALHNHHTQKSLTQSPGK | 10.6 nM | 8.83 nM |
| feline IgG1a mutant ID No. 256: S428M, S434W (antibody, part only; not given: variable domains and light chain, not shown: another chain or arm of the molecule) constant: ASTTAPSVFPLAPSCGTTSGATVALACLVLGYFPEPVTVSWNSGALTSGVHTFPAVLQASGLYSLSSMVTVPSSRWLSDTFTCNVAHPPSNTKVDKTVRKTDHPPGPKPCDCPKCPPPEMLGGPSIFIFPPKPKDTLSISRTPEVTCLVVDLGPDDSDVQITWFVDNTQVYTAKTSPREEQFNSTYRVVSVLPILHQDWLKGKEFKCKVNSKSLPSPIERTISKAKGQPHEPQVYVLPPAQEELSRNKVSVTCLIKSFHPPDIAVEWEITGQPEPENNYRTTPPQLDSDGTYFVYSKLSVDRSHWQRGNTYTCSVMHEALHWHHTQKSLTQSPGK | 0.193 nM | 31.6 nM |
| feline IgG1a mutant ID No. 257: S428M, S434Y (antibody, part only; not given: Variable domains, not shown: another chain or arm of the molecule) constant: ASTTAPSVFPLAPSCGTTSGATVALACLVLGYFPEPVTVSWNSGALTSGVHTFPAVLQASGLYSLSSMVTVPSSRWLSDTFTCNVAHPPSNTKVDKTVRKTDHPPGPKPCDCPKCPPPEMLGGPSIFIFPPKPKDTLSISRTPEVTCLVVDLGPDDSDVQITWFVDNTQVYTAKTSPREEQFNSTYRVVSVLPILHQDWLKGKEFKCKVNSKSLPSPIERTISKAKGQPHEPQVYVLPPAQEELSRNKVSVTCLIKSFHPPDIAVEWEITGQPEPENNYRTTPPQLDSDGTYFVYSKLSVDRSHWQRGNTYTCSVMHEALHYHHTQKSLTQSPGK | 0.264 nM | 21.9 nM |
| feline IgG1a mutant ID No. 266: Q311W, L314K, S434Y (antibody, part only; not given: Variable domains, not shown: another chain or arm of the molecule) constant: ASTTAPSVFPLAPSCGTTSGATVALACLVLGYFPEPVTVSWNSGALTSGVHTFPAVLQASGLYSLSSMVTVPSSRWLSDTFTCNVAHPPSNTKVDKTVRKTDHPPGPKPCDCPKCPPPEMLGGPSIFIFPPKPKDTLSISRTPEVTCLVVDLGPDDSDVQITWFVDNTQVYTAKTSPREEQFNSTYRVVSVLPILHWDWKKGKEFKCKVNSKSLPSPIERTISKAKGQPHEPQVYVLPPAQEELSRNKVSVTCLIKSFHPPDIAVEWEITGQPEPENNYRTTPPQLDSDGTYFVYSKLSVDRSHWQRGNTYTCSVSHEALHYHHTQKSLTQSPGK | 2.8 nM | 388 nM |
| feline IgG1a mutant ID No. 267: S252F, S434F, Q311W (antibody, part only; not given: Variable domains, not shown: another chain or arm of the molecule) constant: ASTTAPSVFPLAPSCGTTSGATVALACLVLGYFPEPVTVSWNSGALTSGVHTFPAVLQASGLYSLSSMVTVPSSRWLSDTFTCNVAHPPSNTKVDKTVRKTDHPPGPKPCDCPKCPPPEMLGGPSIFIFPPKPKDTLFISRTPEVTCLVVDLGPDDSDVQITWFVDNTQVYTAKTSPREEQFNSTYRVVSVLPILHWDWLKGKEFKCKVNSKSLPSPIERTISKAKGQPHEPQVYVLPPAQEELSRNKVSVTCLIKSFHPPDIAVEWEITGQPEPENNYRTTPPQLDSDGTYFVYSKLSVDRSHWQRGNTYTCSVSHEALHFHHTQKSLTQSPGK | 4.15 nM | 4030 nM |
| feline IgG1a mutant ID No. 268: S252F, S434H, Q311W (antibody, part only; not given: Variable domains, not shown: another chain or arm of the molecule) constant: ASTTAPSVFPLAPSCGTTSGATVALACLVLGYFPEPVTVSWNSGALTSGVHTFPAVLQASGLYSLSSMVTVPSSRWLSDTFTCNVAHPPSNTKVDKTVRKTDHPPGPKPCDCPKCPPPEMLGGPSIFIFPPKPKDTLFISRTPEVTCLVVDLGPDDSDVQITWFVDNTQVYTAKTSPREEQFNSTYRVVSVLPILHWDWLKGKEFKCKVNSKSLPSPIERTISKAKGQPHEPQVYVLPPAQEELSRNKVSVTCLIKSFHPPDIAVEWEITGQPEPENNYRTTPPQLDSDGTYFVYSKLSVDRSHWQRGNTYTCSVSHEALHHHHTQKSLTQSPGK | 14.3 nM | 10700 nM |
| feline IgG1a mutant ID No. 269: S252F, S434R, Q311W (antibody, part only; not given: Variable domains, not shown: another chain or arm of the molecule) constant: ASTTAPSVFPLAPSCGTTSGATVALACLVLGYFPEPVTVSWNSGALTSGVHTFPAVLQASGLYSLSSMVTVPSSRWLSDTFTCNVAHPPSNTKVDKTVRKTDHPPGPKPCDCPKCPPPEMLGGPSIFIFPPKPKDTLFISRTPEVTCLVVDLGPDDSDVQITWFVDNTQVYTAKTSPREEQFNSTYRVVSVLPILHWDWLKGKEFKCKVNSKSLPSPIERTISKAKGQPHEPQVYVLPPAQEELSRNKVSVTCLIKSFHPPDIAVEWEITGQPEPENNYRTTPPQLDSDGTYFVYSKLSVDRSHWQRGNTYTCSVSHEALHRHHTQKSLTQSPGK | 11.3 nM | 1520 nM |
| feline IgG1a mutant ID No. 270: S252F, S434W, Q311W (antibody, part only; not given: variable domains and light chain, not shown: another chain or arm of the molecule) constant: ASTTAPSVFPLAPSCGTTSGATVALACLVLGYFPEPVTVSWNSGALTSGVHTFPAVLQASGLYSLSSMVTVPSSRWLSDTFTCNVAHPPSNTKVDKTVRKTDHPPGPKPCDCPKCPPPEMLGGPSIFIFPPKPKDTLFISRTPEVTCLVVDLGPDDSDVQITWFVDNTQVYTAKTSPREEQFNSTYRVVSVLPILHWDWLKGKEFKCKVNSKSLPSPIERTISKAKGQPHEPQVYVLPPAQEELSRNKVSVTCLIKSFHPPDIAVEWEITGQPEPENNYRTTPPQLDSDGTYFVYSKLSVDRSHWQRGNTYTCSVSHEALHWHHTQKSLTQSPGK | 3.68 nM | 2640 nM |
| feline IgG1a mutant ID No. 271: S252F, S434Y, Q311W (antibody, part only; not given: Variable domains, not shown: another chain or arm of the molecule) constant: ASTTAPSVFPLAPSCGTTSGATVALACLVLGYFPEPVTVSWNSGALTSGVHTFPAVLQASGLYSLSSMVTVPSSRWLSDTFTCNVAHPPSNTKVDKTVRKTDHPPGPKPCDCPKCPPPEMLGGPSIFIFPPKPKDTLFISRTPEVTCLVVDLGPDDSDVQITWFVDNTQVYTAKTSPREEQFNSTYRVVSVLPILHWDWLKGKEFKCKVNSKSLPSPIERTISKAKGQPHEPQVYVLPPAQEELSRNKVSVTCLIKSFHPPDIAVEWEITGQPEPENNYRTTPPQLDSDGTYFVYSKLSVDRSHWQRGNTYTCSVSHEALHYHHTQKSLTQSPGK | 0.0969 nM | 6.21 nM |
| feline IgG1a mutant ID No. 272: S252R, S434F (antibody, part only; not given: variable domains, not shown: another chain or arm of the molecule) constant: ASTTAPSVFPLAPSCGTTSGATVALACLVLGYFPEPVTVSWNSGALTSGVHTFPAVLQASGLYSLSSMVTVPSSRWLSDTFTCNVAHPPSNTKVDKTVRKTDHPPGPKPCDCPKCPPPEMLGGPSIFIFPPKPKDTLRISRTPEVTCLVVDLGPDDSDVQITWFVDNTQVYTAKTSPREEQFNSTYRVVSVLPILHQDWLKGKEFKCKVNSKSLPSPIERTISKAKGQPHEPQVYVLPPAQEELSRNKVSVTCLIKSFHPPDIAVEWEITGQPEPENNYRTTPPQLDSDGTYFVYSKLSVDRSHWQRGNTYTCSVSHEALHFHHTQKSLTQSPGK | 7.96 nM | 11900 nM |
| feline IgG1a mutant ID No. 273: S252R, S434F, Q311W (antibody, part only; not given: Variable domains, not shown: another chain or arm of the molecule) constant: ASTTAPSVFPLAPSCGTTSGATVALACLVLGYFPEPVTVSWNSGALTSGVHTFPAVLQASGLYSLSSMVTVPSSRWLSDTFTCNVAHPPSNTKVDKTVRKTDHPPGPKPCDCPKCPPPEMLGGPSIFIFPPKPKDTLRISRTPEVTCLVVDLGPDDSDVQITWFVDNTQVYTAKTSPREEQFNSTYRVVSVLPILHWDWLKGKEFKCKVNSKSLPSPIERTISKAKGQPHEPQVYVLPPAQEELSRNKVSVTCLIKSFHPPDIAVEWEITGQPEPENNYRTTPPQLDSDGTYFVYSKLSVDRSHWQRGNTYTCSVSHEALHFHHTQKSLTQSPGK | 4.77 nM | 4760 nM |
| feline IgG1a mutant ID No. 274: S252R, S434H, Q311W (antibody, part only; not given: Variable domains, not shown: another chain or arm of the molecule) constant: ASTTAPSVFPLAPSCGTTSGATVALACLVLGYFPEPVTVSWNSGALTSGVHTFPAVLQASGLYSLSSMVTVPSSRWLSDTFTCNVAHPPSNTKVDKTVRKTDHPPGPKPCDCPKCPPPEMLGGPSIFIFPPKPKDTLRISRTPEVTCLVVDLGPDDSDVQITWFVDNTQVYTAKTSPREEQFNSTYRVVSVLPILHWDWLKGKEFKCKVNSKSLPSPIERTISKAKGQPHEPQVYVLPPAQEELSRNKVSVTCLIKSFHPPDIAVEWEITGQPEPENNYRTTPPQLDSDGTYFVYSKLSVDRSHWQRGNTYTCSVSHEALHHHHTQKSLTQSPGK | 5.62 nM | 3850 nM |
| feline IgG1a mutant ID No. 276: S252R, S434R, Q311W (antibody, part only; not given: variable domains and light chain, not shown: another chain or arm of the molecule) constant: ASTTAPSVFPLAPSCGTTSGATVALACLVLGYFPEPVTVSWNSGALTSGVHTFPAVLQASGLYSLSSMVTVPSSRWLSDTFTCNVAHPPSNTKVDKTVRKTDHPPGPKPCDCPKCPPPEMLGGPSIFIFPPKPKDTLRISRTPEVTCLVVDLGPDDSDVQITWFVDNTQVYTAKTSPREEQFNSTYRVVSVLPILHWDWLKGKEFKCKVNSKSLPSPIERTISKAKGQPHEPQVYVLPPAQEELSRNKVSVTCLIKSFHPPDIAVEWEITGQPEPENNYRTTPPQLDSDGTYFVYSKLSVDRSHWQRGNTYTCSVSHEALHRHHTQKSLTQSPGK | 28.7 nM | 14800 nM |
| feline IgG1a mutant ID No. 277: S252R, S434W (antibody, part only; not given: Variable domains, not shown: another chain or arm of the molecule) constant: ASTTAPSVFPLAPSCGTTSGATVALACLVLGYFPEPVTVSWNSGALTSGVHTFPAVLQASGLYSLSSMVTVPSSRWLSDTFTCNVAHPPSNTKVDKTVRKTDHPPGPKPCDCPKCPPPEMLGGPSIFIFPPKPKDTLRISRTPEVTCLVVDLGPDDSDVQITWFVDNTQVYTAKTSPREEQFNSTYRVVSVLPILHQDWLKGKEFKCKVNSKSLPSPIERTISKAKGQPHEPQVYVLPPAQEELSRNKVSVTCLIKSFHPPDIAVEWEITGQPEPENNYRTTPPQLDSDGTYFVYSKLSVDRSHWQRGNTYTCSVSHEALHWHHTQKSLTQSPGK | 7.1 nM | 6600 nM |
